Test results from patent publication US8563520B2, “Treatment of ocular disease with inhibitors of alpha2 macroglobulin protein” (McGill University, priority 2005, dated 2013).
Where two headings read alike, the source gives them in different places.

Tested on: Rat Retina
Description: The following experiment was conducted in order to assess changes in gene expression induced in the retina after intraocular injection of α2 macroglobulin protein. 2 μg of α2 macroglobulin protein was intraocularly injected into the right eye of rats (n=3) and the left eye was used as a control. One rat was tested at Day 3, one rat was tested at Day 7 and one rat was tested at Day 14. Retinas were isolated and mRNA was collected. Samples from each of the rats were studied by gene microassays. Retinas were carefully dissected out to insure that only retinal mRNAs were prepared for gene microarray studies. Samples were obtained from control eyes.
Total RNA was isolated from retinal tissue using TRIZOL® (Life Technologies). RNA was then further purified using the RNAEASY® (QIAGEN®). The integrity of the RNA samples was assessed by running aliquots on RNA 6000 Nano LabChip (Agilent) using the 2100 bioanalyzer (Agilent).
Probe synthesis, hybridization and scanning were done according to Affymetrix protocol, as a service at the McGill University and Genome Quebec Innovation Centre. For the experiments shown, Rat U34 Genome Arrays (8,700 genes, Affymetrix) were used. Briefly, RNA samples were first converted to double stranded cDNA (T7-(dT)24 primer (Genset)). Then the cDNAs were purified and used to generate the biotinylated cRNA probes (Bioarray High Yield RNA transcript labeling kit (Enzo diagnostics)). An aliquot of the purified cRNA was analyzed on RNA 6000 Nano LabChip (Agilent) to verify the integrity and size distribution. Immediately after hybridization the chip was placed in the Affymetrix GeneChip Fluidics Station 400 (Affymetrix). In total, 10 low-stringency washes (63 SSPE, 0.01% Tween-20, 0.005% Antifoam) and 4 high-stringency washes (100 mM MES, 0.1 M NaCl, 0.01% Tween-20, 50 C) were performed (all reagents from Sigma). The array was then incubated with SAPE® (streptavidin/phycoerythrin stain, Molecular Probes), followed by 10 low stringency washes. The array was incubated with biotinylated anti-streptavidin antibody (Vector Laboratories) and washed again with 15 low stringency washes. Specifically bound probe was detected by placing the array in the Agilent GeneArray scanner 2500 (Affymetrix). The scanned images were analyzed using the Microarray Analysis Suite version 5.0 (Affymetrix).
The fold change was analyzed by […] data for the control eye from the data on the eye injected with α2 macroglobulin. A fold change of 2 or greater indicates upregulation. A fold of 0.5 to 2 indicates no change. A fold change of 0.5 or less indicates downregulation.

[1] = gene complexin 2 (1368584_a_at)
[2] = gene crystallin, beta A2 (1388385_at)
[3] = gene crystallin, beta B1 (1369985_at)
[4] = gene crystallin, beta B2 (1367684_at)
[5] = gene crystallin, beta B3 (1367990_at)
[6] = gene crystallin, gamma N (predicted) (1384241_at)
[7] = gene death effector domain-containing (1369003_at)
[8] = gene fibrinogen-like 2 (1392894_at)
[9] = gene forkhead box E3 (1370797_at)
[10] = gene glycoprotein 2 (zymogen granule membrane) (1386933_at)
[11] = gene glycoprotein (transmembrane) nmb (1368187_at)
[12] = gene guanylate nucleotide binding protein 2 (1368332_at)
[13] = gene interferon induced transmembrane protein 1 (predicted) (1372013_at)
[14] = gene lens intrinsic membrane protein 2 (1368493_at)
[15] = gene membrane metallo endopeptidase (1370072_at)
[16] = gene membrane-spanning 4-domains, subfamily A, member 6B (1390510_at)
[17] = gene procollagen, type III, alpha 1 (1370959_at)
[18] = gene procollagen, type IV, alpha 1 (1372439_at)
[19] = gene procollagen, type IV, alpha 1 (1373245_at)
[20] = gene serine (or cysteine) peptidase inhibitor, clade G, member 1 (1372254_at)
[21] = gene similar to Beta crystallin S (Gamma crystallin S) (1388435_at)
[22] = gene similar to FRBZ1 protein (FRBZ1) (predicted) (1398217_at)
[23] = gene similar to Phakinin (Beaded filament structural protein 2) (1383812_at)
[24] = gene similar to RCK (predicted) (1389868_at)
[25] = gene similar to RIKEN cDNA 1300010M03 (predicted) (1376087_at)
[26] = gene similar to RIKEN cDNA 1500009M05 (predicted) (1382193_at)
[27] = gene similar to RIKEN cDNA 4930555G01 (predicted) (1391152_at)
[28] = gene similar to RNA-binding protein Musashi2-S (predicted) (1390813_at)
[29] = gene similar to keratin complex 2, basic, gene 6a (1373349_at)
[30] = gene similar to mKIAA1450 protein (predicted) (1391315_at)
[31] = gene similar to serine (or cysteine) proteinase inhibitor (1388746_at)
[32] = gene solute carrier family 6 (neurotransmitter transporter, GABA) (1369715_at)
[33] = gene solute carrier family 6 (neurotransmitter transporter, taurine) (1368778_at)
[34] = gene spectrin alpha 1 (1386212_at)

B1: α2m: α2 macroglobulin protein injected intraocularly into normal rat eyes (protein, UniProt P06238 28-1472, looked up)
Alpha-2-macroglobulin: SAPQKPIYMVMVPSLLHAGTPEKACFLFSHLNETVAVRVSLESVRGNQSLFTDLVVDKDLFHCTSFTVPQSSSDEVMFFTVQVKGATHEFRRRSTVLVKKKESLVFAQTDKPIYKPGQTVRFRVVSLDESFHPLNELIPLLYIQDPKNNRIAQWQNFNLEGGLKQLSFPLSSEPTQGSYKVVIRTESGRTVEHPFSVEEFVLPKFEVRVTVPETITILEEEMNVSVCGIYTYGKPVPGRVTVNICRKYSNPSNCFGEESVAFCEKLSQQLDGRGCFSQLVKTKSFQLKRQEYEMQLDVHAKIQEEGTGVEETGKGLTKITRTITKLSFVNVDSHFRQGIPFVGQVLLVDGRGTPIPYETIFIGADEANLYINTTTDKHGLARFSINTDDIMGTSLTVRAKYKDSNACYGFRWLTEENVEAWHTAYAVFSPSRSFLHLESLPDKLRCDQTLEVQAHYILNGEAMQELKELVFYYLMMAKGGIVRAGTHVLPLKQGQMRGHFSILISMETDLAPVARLVLYAILPNGEVVGDTAKYEIENCLANKVDLVFRPNSGLPATRALLSVMASPQSLCGLRAVDQSVLLMKPETELSASLIYDLLPVKDLTGFPQGADQREEDTNGCVKQNDTYINGILYSPVQNTNEEDMYGFLKDMGLKVFTNSNIRKPKVCERLRDNKGIPAAYHLVSQSHMDAFLESSESPTETRRSYFPETWIWDLVVVDSAGVAEVEVTVPDTITEWKAGAFCLSNDTGLGLSPVVQFQAFQPFFVELTMPYSVIRGEAFTLKATVLNYLPTCIRVAVQLEASPDFLAAPEEKEQRSHCICMNQRHTASWAVIPKSLGNVNFTVSAEALNSKELCGNEVPVVPEQGKKDTIIKSLLVEPEGLENEVTFNSLLCPMGAEVSELIALKLPSDVVEESARASVTVLGDILGSAMQNTQDLLKMPYGCGEQNMVLFAPNIYVLDYLNETQQLTQEIKTKAIAYLNTGYQRQLNYKHRDGSYSTFGDKPGRNHANTWLTAFVLKSFAQARKYIFIDEVHITQALLWLSQQQKDNGCFRSSGSLLNNAMKGGVEDEVTLSAYITIALLEMSLPVTHPVVRNALFCLDTAWKSARGGAGGSHVYTKALLAYAFALAGNQDTKKEILKSLDEEAVKEEDSVHWTRPQKPSVSVALWYQPQAPSAEVEMTAYVLLAYLTTEPAPTQEDLTAAMLIVKWLTKQQNSHGGFSSTQDTVVALHALSKYGSATFTRAKKAAQVTIHSSGTFSTKFQVNNNNQLLLQRVTLPTVPGDYTVKVTGEGCVYLQTSLKYSVLPREEEFPFTVVVQTLPGTCEDPKAHTSFQISLNISYTGSRSESNMAIADVKMVSGFIPLKPTVKMLERSVHVSRTEVSNNHVLIYLDKVSNQTVNLSFTVQQDIPIRDLKPAVVKVYDYYEKDEFAVAKYSAPCSTDYGNA
- Fold Change (α2m vs normal) Day 7 (gene complement factor B (1389470_at)): 3.3
- Fold Change (α2m vs normal) Day 3 [1]: 0.5
- Fold Change (α2m vs normal) Day 7 [1]: 0.2
- Fold Change (α2m vs normal) Day 3 [2]: 0.5
- Fold Change (α2m vs normal) Day 7 [2]: 3.6
- Fold Change (α2m vs normal) Day 14 [2]: 2.0
- Fold Change (α2m vs normal) Day 3 [3]: 0.5
- Fold Change (α2m vs normal) Day 7 [3]: 3.4
- Fold Change (α2m vs normal) Day 14 [3]: 2.0
- Fold Change (α2m vs normal) Day 3 [4]: 0.4
- Fold Change (α2m vs normal) Day 7 [4]: 3.7
- Fold Change (α2m vs normal) Day 14 [4]: 2.2
- Fold Change (α2m vs normal) Day 3 [5]: 0.4
- Fold Change (α2m vs normal) Day 7 [5]: 4.2
- Fold Change (α2m vs normal) Day 14 [5]: 2.0
- Fold Change (α2m vs normal) Day 3 [6]: 0.5
- Fold Change (α2m vs normal) Day 7 [6]: 3.9
- Fold Change (α2m vs normal) Day 3 [7]: 0.5
- Fold Change (α2m vs normal) Day 7 [7]: 0.4
- Fold Change (α2m vs normal) Day 3 (gene decorin (1370956_at)): 3.7
- Fold Change (α2m vs normal) Day 7 (gene decorin (1370956_at)): 12.6
- Fold Change (α2m vs normal) Day 3 [8]: 2.1
- Fold Change (α2m vs normal) Day 7 [8]: 2.1
- Fold Change (α2m vs normal) Day 3 [9]: 0.4
- Fold Change (α2m vs normal) Day 7 [9]: 2.9
- Fold Change (α2m vs normal) Day 14 [9]: 2.2
- Fold Change (α2m vs normal) Day 3 [10]: 0.5
- Fold Change (α2m vs normal) Day 7 [10]: 2.1
- Fold Change (α2m vs normal) Day 3 [11]: 3.9
- Fold Change (α2m vs normal) Day 7 [11]: 7.4
- Fold Change (α2m vs normal) Day 3 [12]: 2.2
- Fold Change (α2m vs normal) Day 7 [12]: 2.1
- Fold Change (α2m vs normal) Day 3 [13]: 5.8
- Fold Change (α2m vs normal) Day 7 [13]: 4.2
- Fold Change (α2m vs normal) Day 3 [14]: 0.5
- Fold Change (α2m vs normal) Day 7 [14]: 2.5
- Fold Change (α2m vs normal) Day 3 (gene lumican (1367749_at)): 6.1
- Fold Change (α2m vs normal) Day 7 (gene lumican (1367749_at)): 4.1
- Fold Change (α2m vs normal) Day 14 (gene lumican (1367749_at)): 0.4
- Fold Change (α2m vs normal) Day 3 (gene lysozyme (1370154_at)): 7.8
- Fold Change (α2m vs normal) Day 7 (gene lysozyme (1370154_at)): 2.8
- Fold Change (α2m vs normal) Day 3 [15]: 0.5
- Fold Change (α2m vs normal) Day 7 [15]: 5.3
- Fold Change (α2m vs normal) Day 14 [15]: 2.2
- Fold Change (α2m vs normal) Day 3 [16]: 5.1
- Fold Change (α2m vs normal) Day 7 [16]: 2.1
- Fold Change (α2m vs normal) Day 3 [17]: 3.7
- Fold Change (α2m vs normal) Day 7 [17]: 3.4
- Fold Change (α2m vs normal) Day 3 [18]: 0.3
- Fold Change (α2m vs normal) Day 7 [18]: 17.5
- Fold Change (α2m vs normal) Day 14 [18]: 2.4
- Fold Change (α2m vs normal) Day 3 [19]: 0.3
- Fold Change (α2m vs normal) Day 7 [19]: 13.2
- Fold Change (α2m vs normal) Day 14 [19]: 2.3
- Fold Change (α2m vs normal) Day 3 [20]: 3.0
- Fold Change (α2m vs normal) Day 7 [20]: 3.3
- Fold Change (α2m vs normal) Day 3 [21]: 0.5
- Fold Change (α2m vs normal) Day 7 [21]: 2.8
- Fold Change (α2m vs normal) Day 14 [21]: 2.9
- Fold Change (α2m vs normal) Day 3 [22]: 0.5
- Fold Change (α2m vs normal) Day 7 [22]: 0.2
- Fold Change (α2m vs normal) Day 3 [23]: 0.4
- Fold Change (α2m vs normal) Day 7 [23]: 2.7
- Fold Change (α2m vs normal) Day 3 [24]: 0.5
- Fold Change (α2m vs normal) Day 7 [24]: 0.2
- Fold Change (α2m vs normal) Day 3 [25]: 0.5
- Fold Change (α2m vs normal) Day 7 [25]: 0.4
- Fold Change (α2m vs normal) Day 3 [26]: 0.4
- Fold Change (α2m vs normal) Day 7 [26]: 0.2
- Fold Change (α2m vs normal) Day 3 [27]: 2.0
- Fold Change (α2m vs normal) Day 7 [27]: 5.6
- Fold Change (α2m vs normal) Day 3 [28]: 0.5
- Fold Change (α2m vs normal) Day 7 [28]: 0.2
- Fold Change (α2m vs normal) Day 3 [29]: 7.3
- Fold Change (α2m vs normal) Day 7 [29]: 0.4
- Fold Change (α2m vs normal) Day 3 [30]: 0.5
- Fold Change (α2m vs normal) Day 7 [30]: 0.2
- Fold Change (α2m vs normal) Day 3 [31]: 0.4
- Fold Change (α2m vs normal) Day 7 [31]: 2.6
- Fold Change (α2m vs normal) Day 3 [32]: 0.5
- Fold Change (α2m vs normal) Day 7 [32]: 0.4
- Fold Change (α2m vs normal) Day 3 [33]: 0.5
- Fold Change (α2m vs normal) Day 7 [33]: 0.2
- Fold Change (α2m vs normal) Day 14 [33]: 2.3
- Fold Change (α2m vs normal) Day 3 [34]: 0.5
- Fold Change (α2m vs normal) Day 7 [34]: 2.1
- Fold Change (α2m vs normal) Day 3 (gene — (1393766_at, AI112375)): 0.4
- Fold Change (α2m vs normal) Day 7 (gene — (1393766_at, AI112375)): 0.3
- Fold Change (α2m vs normal) Day 14 (gene — (1393766_at, AI112375)): 3.6
- Fold Change (α2m vs normal) Day 3 (gene — (1394837_at, BF405797)): 0.3
- Fold Change (α2m vs normal) Day 7 (gene — (1394837_at, BF405797)): 0.2
- Fold Change (α2m vs normal) Day 3 (gene — (1395129_at, BE107340)): 0.5
- Fold Change (α2m vs normal) Day 7 (gene — (1395129_at, BE107340)): 0.3
